This passage reports Km, kcat and kcat/Km results from patent US20070105924A1, “Vigabatrin bioisoteres and related methods of use” (priority 2005, published 2007).

Among the test systems are NCCCC(=O)O; NCCCCc1nnn[nH]1; NCCCc1nnn[nH]1; NCCc1nnn[nH]1.
Holding throughout (experiment): purified protein, by the assay type
Common to all, as to settings: other: substrate of GABA-AT, 1 h incubation, 25° C., pH 8.5

Experimental for NCCCCc1nnn[nH]1: (§1) After incubation (48 h for the preliminary test, 1 h for determination of kinetic constants), the mixture was quenched with trichloroacetic acid. The resulting [^14C]glutamate was isolated by cation-exchange chromatography, and the DPM (disintegration per minute) value was measured. Controls consisted of the entire incubation mixture with substrates omitted. The substrate kinetic constants kcat and Km were determined by the method of Hanes and Woolf, as referenced above.
Experimental for NCCCc1nnn[nH]1: as §1
Experimental for NCCc1nnn[nH]1: as §1

A word on the Km: it is the substrate concentration at which the rate is half of its maximum. A word on the kcat: it is the number of substrate molecules converted per active site and unit of time at saturation. Usually kcat/Km stands for the turnover number divided by the Michaelis constant. On to GABA-AT (Sus scrofa), for which the Km turned out to be 2.4 mM with NCCCC(=O)O, 8.0 mM in the data set on NCCCCc1nnn[nH]1, 2.4 mM in the data set on NCCCc1nnn[nH]1 and 2.3 mM with NCCc1nnn[nH]1. Moreover, the kcat in the data set on NCCCC(=O)O was found to be 0.817 s⁻¹; in the data set with NCCCCc1nnn[nH]1, 0.693 s⁻¹; with NCCCc1nnn[nH]1, 0.477 s⁻¹; in the data set with NCCc1nnn[nH]1, 0.265 s⁻¹. The kcat/Km with NCCCC(=O)O amounted to 340 M⁻¹ s⁻¹; in the data set on NCCCCc1nnn[nH]1, 86.7 M⁻¹ s⁻¹; in the data set with NCCCc1nnn[nH]1 it was 195 M⁻¹ s⁻¹; in the data set with NCCc1nnn[nH]1, 115 M⁻¹ s⁻¹.
